According to US20260144882A1 (BIO THERA SOLUTIONS, published 2026):

T1: human Nectin-4 extracellular antigen hNectin-4-His (human, UniProt Q96NY8 32-349)
T1 construct: C-terminal 8xHis tag included
T1 sequence: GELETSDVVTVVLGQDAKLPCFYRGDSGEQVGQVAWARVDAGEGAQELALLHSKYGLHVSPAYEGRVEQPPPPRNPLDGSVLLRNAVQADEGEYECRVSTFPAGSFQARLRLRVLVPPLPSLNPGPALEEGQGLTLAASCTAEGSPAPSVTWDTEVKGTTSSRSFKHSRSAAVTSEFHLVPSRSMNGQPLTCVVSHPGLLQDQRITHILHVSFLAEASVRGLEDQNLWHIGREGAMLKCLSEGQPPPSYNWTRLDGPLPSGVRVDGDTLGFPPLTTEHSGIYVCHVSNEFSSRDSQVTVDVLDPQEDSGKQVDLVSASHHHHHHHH

B1: 1F3-2A12 scFv (scFv, V domains shown)
VH: EVQLVESGGGLVQPGGSLRLSCAASGYSFDSYGMSWVRQAPGKGLEWVSGIKPTGASTYYADSVKGRFTISRDNSKNTLYLQMNSLRAEDTAVYYCARAELLAFDVYTASDYWGQGTLVTVSS
VL: DIQMTQSPSSLSASVGDRVTITCRASQGISSYLAWYQQKPGKAPKLLIYAASSLQSGVPSRFSGSGSGTDFTLTISSLQPEDFATYYCQQHYTTPPTFGQGTKVEIKR
notes: phage clone supernatant
B2: 1G8-2D4 scFv (scFv, V domains shown)
VH: EVQLVESGGGLVQPGGSLRLSCAASGYNFGGYAMSWVRQAPGKGLEWVSRISGTSGNNDYADSVKGRFTISRDNSKNTLYLQMNSLRAEDTAVYYCARQTEDRSYGYDLDYWGQGTLVTVSS
VL: DIQMTQSPSSLSASVGDRVTITCRASQGISSYLAWYQQKPGKAPKLLIYAASSLQSGVPSRFSGSGSGTDFTLTISSLQPEDFATYYCQQHYTTPPTFGQGTKVEIKR
notes: phage clone supernatant
B3: 1F3-2E8 scFv (scFv, V domains shown)
VH: EVQLVESGGGLVQPGGSLRLSCAASGYSFSDYGMSWVRQAPGKGLEWVSWISPSKGSASYADSVKGRFTISRDNSKNTLYLQMNSLRAEDTAVYYCARAELLAFDVYTASDYWGQGTLVTVSS
VL: DIQMTQSPSSLSASVGDRVTITCRASQGISSYLAWYQQKPGKAPKLLIYAASSLQSGVPSRFSGSGSGTDFTLTISSLQPEDFATYYCQQHYTTPPTFGQGTKVEIKR
notes: phage clone supernatant
B4: 1F3-2E12 scFv (scFv, V domains shown)
VH: EVQLVESGGGLVQPGGSLRLSCAASGGNFTNSGMSWVRQAPGKGLEWVSGIKWSSDETYYADSVKGRFTISRDNSKNTLYLQMNSLRAEDTAVYYCARAELLAFDVYTASDYWGQGTLVTVSS
VL: DIQMTQSPSSLSASVGDRVTITCRASQGISSYLAWYQQKPGKAPKLLIYAASSLQSGVPSRFSGSGSGTDFTLTISSLQPEDFATYYCQQHYTTPPTFGQGTKVEIKR
notes: phage clone supernatant
B5: 1F3-2G10 scFv (scFv, V domains shown)
VH: EVQLVESGGGLVQPGGSLRLSCAASGFNFSNYGMSWVRQAPGKGLEWVSRIKPTDGSTHYADSVKGRFTISRDNSKNTLYLQMNSLRAEDTAVYYCARAELLAFDVYTASDYWGQGTLVTVSS
VL: DIQMTQSPSSLSASVGDRVTITCRASQGISSYLAWYQQKPGKAPKLLIYAASSLQSGVPSRFSGSGSGTDFTLTISSLQPEDFATYYCQQHYTTPPTFGQGTKVEIKR
notes: phage clone supernatant
B6: 1F3-2F6 scFv (scFv, V domains shown)
VH: EVQLVESGGGLVQPGGSLRLSCAASGFTFSDYGMSWVRQAPGKGLEWVSRISQYGGGIRYADSVKGRFTISRDNSKNTLYLQMNSLRAEDTAVYYCARAELLAFDVYTASDYWGQGTLVTVSS
VL: DIQMTQSPSSLSASVGDRVTITCRASQGISSYLAWYQQKPGKAPKLLIYAASSLQSGVPSRFSGSGSGTDFTLTISSLQPEDFATYYCQQHYTTPPTFGQGTKVEIKR
notes: phage clone supernatant
B7: 1F3-2B2-2 scFv (scFv, V domains shown)
VH: EVQLVESGGGLVQPGGSLRLSCAASGYSFSDFGMSWVRQAPGKGLEWVSRIDPSGWSTSYADSVKGRFTISRDNSKNTLYLQMNSLRAEDTAVYYCARAELLAFDVYTASDYWGQGTLVTVSS
VL: DIQMTQSPSSLSASVGDRVTITCRASQGISSYLAWYQQKPGKAPKLLIYAASSLQSGVPSRFSGSGSGTDFTLTISSLQPEDFATYYCQQHYTTPPTFGQGTKVEIKR
notes: phage clone supernatant
B8: 1F3-2B1 scFv (scFv, V domains shown)
VH: EVQLVESGGGLVQPGGSLRLSCAASGYNFDNYAMSWVRQAPGKGLEWVSGIKPDSATTYYADSVKGRFTISRDNSKNTLYLQMNSLRAEDTAVYYCARAELLAFDVYTASDYWGQGTLVTVSS
VL: DIQMTQSPSSLSASVGDRVTITCRASQGISSYLAWYQQKPGKAPKLLIYAASSLQSGVPSRFSGSGSGTDFTLTISSLQPEDFATYYCQQHYTTPPTFGQGTKVEIKR
notes: phage clone supernatant
B9: 1F3-2C9 scFv (scFv, V domains shown)
VH: EVQLVESGGGLVQPGGSLRLSCAASGFNFGGYGMSWVRQAPGKGLEWVSRISPGDSTPRYADSVKGRFTISRDNSKNTLYLQMNSLRAEDTAVYYCARAELLAFDVYTASDYWGQGTLVTVSS
VL: DIQMTQSPSSLSASVGDRVTITCRASQGISSYLAWYQQKPGKAPKLLIYAASSLQSGVPSRFSGSGSGTDFTLTISSLQPEDFATYYCQQHYTTPPTFGQGTKVEIKR
notes: phage clone supernatant
B10: 1F3-2D2 scFv (scFv, V domains shown)
VH: EVQLVESGGGLVQPGGSLRLSCAASGFNFSSYGMSWVRQAPGKGLEWVSRISPYTGTTHYADSVKGRFTISRDNSKNTLYLQMNSLRAEDTAVYYCARAELLAFDVYTASDYWGQGTLVTVSS
VL: DIQMTQSPSSLSASVGDRVTITCRASQGISSYLAWYQQKPGKAPKLLIYAASSLQSGVPSRFSGSGSGTDFTLTISSLQPEDFATYYCQQHYTTPPTFGQGTKVEIKR
notes: phage clone supernatant
B11: 1F3-2F1 scFv (scFv, V domains shown)
VH: EVQLVESGGGLVQPGGSLRLSCAASGDIFTGYSMSWVRQAPGKGLEWVSGIYQTGSNTRYADSVKGRFTISRDNSKNTLYLQMNSLRAEDTAVYYCARAELLAFDVYTASDYWGQGTLVTVSS
VL: DIQMTQSPSSLSASVGDRVTITCRASQGISSYLAWYQQKPGKAPKLLIYAASSLQSGVPSRFSGSGSGTDFTLTISSLQPEDFATYYCQQHYTTPPTFGQGTKVEIKR
notes: phage clone supernatant
B12: 1F3-2H12 scFv (scFv, V domains shown)
VH: EVQLVESGGGLVQPGGSLRLSCAASGDSFDSSGMSWVRQAPGKGLEWVSGIKWITGESYYADSVKGRFTISRDNSKNTLYLQMNSLRAEDTAVYYCARAELLAFDVYTASDYWGQGTLVTVSS
VL: DIQMTQSPSSLSASVGDRVTITCRASQGISSYLAWYQQKPGKAPKLLIYAASSLQSGVPSRFSGSGSGTDFTLTISSLQPEDFATYYCQQHYTTPPTFGQGTKVEIKR
notes: phage clone supernatant
B13: 1F3-2F3 scFv (scFv, V domains shown)
VH: EVQLVESGGGLVQPGGSLRLSCAASGFNFSDYGMSWVRQAPGKGLEWVSRIDWDGGNTRYADSVKGRFTISRDNSKNTLYLQMNSLRAEDTAVYYCARAELLAFDVYTASDYWGQGTLVTVSS
VL: DIQMTQSPSSLSASVGDRVTITCRASQGISSYLAWYQQKPGKAPKLLIYAASSLQSGVPSRFSGSGSGTDFTLTISSLQPEDFATYYCQQHYTTPPTFGQGTKVEIKR
notes: phage clone supernatant
B14: 1F3-2H6 scFv (scFv, V domains shown)
VH: EVQLVESGGGLVQPGGSLRLSCAASGYTFSSYGMSWVRQAPGKGLEWVSRIKSDGGDTHYADSVKGRFTISRDNSKNTLYLQMNSLRAEDTAVYYCARAELLAFDVYTASDYWGQGTLVTVSS
VL: DIQMTQSPSSLSASVGDRVTITCRASQGISSYLAWYQQKPGKAPKLLIYAASSLQSGVPSRFSGSGSGTDFTLTISSLQPEDFATYYCQQHYTTPPTFGQGTKVEIKR
notes: phage clone supernatant
B15: 1F3-2C6 scFv (scFv, V domains shown)
VH: EVQLVESGGGLVQPGGSLRLSCAASGDIFTNYSMSWVRQAPGKGLEWVSGIYASGSDKRYADSVKGRFTISRDNSKNTLYLQMNSLRAEDTAVYYCARAELLAFDVYTASDYWGQGTLVTVSS
VL: DIQMTQSPSSLSASVGDRVTITCRASQGISSYLAWYQQKPGKAPKLLIYAASSLQSGVPSRFSGSGSGTDFTLTISSLQPEDFATYYCQQHYTTPPTFGQGTKVEIKR
notes: phage clone supernatant
B16: 1F3-2G9 scFv (scFv, V domains shown)
VH: EVQLVESGGGLVQPGGSLRLSCAASGFTFGGYGMSWVRQAPGKGLEWVSWISAWDGSIYYADSVKGRFTISRDNSKNTLYLQMNSLRAEDTAVYYCARAELLAFDVYTASDYWGQGTLVTVSS
VL: DIQMTQSPSSLSASVGDRVTITCRASQGISSYLAWYQQKPGKAPKLLIYAASSLQSGVPSRFSGSGSGTDFTLTISSLQPEDFATYYCQQHYTTPPTFGQGTKVEIKR
notes: phage clone supernatant
B17: 1F3-2B9 scFv (scFv, V domains shown)
VH: EVQLVESGGGLVQPGGSLRLSCAASGFNFDSYAMSWVRQAPGKGLEWVSGIKPHTDDIYYADSVKGRFTISRDNSKNTLYLQMNSLRAEDTAVYYCARAELLAFDVYTASDYWGQGTLVTVSS
VL: DIQMTQSPSSLSASVGDRVTITCRASQGISSYLAWYQQKPGKAPKLLIYAASSLQSGVPSRFSGSGSGTDFTLTISSLQPEDFATYYCQQHYTTPPTFGQGTKVEIKR
notes: phage clone supernatant
B18: 1G8-1A3 scFv (scFv, V domains shown)
VH: EVQLVESGGGLVQPGGSLRLSCAASGYNFGSYAMSWVRQAPGKGLEWVSRIYPGSWSPDYADSVKGRFTISRDNSKNTLYLQMNSLRAEDTAVYYCARQTEDRSYGYDLDYWGQGTLVTVSS
VL: DIQMTQSPSSLSASVGDRVTITCRASQGISSYLAWYQQKPGKAPKLLIYAASSLQSGVPSRFSGSGSGTDFTLTISSLQPEDFATYYCQQHYTTPPTFGQGTKVEIKR
notes: phage clone supernatant
B19: 1F3-2D8 scFv (scFv, V domains shown)
VH: EVQLVESGGGLVQPGGSLRLSCAASGYSFSDYGMSWVRQAPGKGLEWVSRISPSKAVKDYADSVKGRFTISRDNSKNTLYLQMNSLRAEDTAVYYCARAELLAFDVYTASDYWGQGTLVTVSS
VL: DIQMTQSPSSLSASVGDRVTITCRASQGISSYLAWYQQKPGKAPKLLIYAASSLQSGVPSRFSGSGSGTDFTLTISSLQPEDFATYYCQQHYTTPPTFGQGTKVEIKR
notes: phage clone supernatant
B20: 1F3-2B2 scFv (scFv, V domains shown)
VH: EVQLVESGGGLVQPGGSLRLSCAASGYNFYSYGMSWVRQAPGKGLEWVSIISPDGGYKRYADSVKGRFTISRDNSKNTLYLQMNSLRAEDTAVYYCARAELLAFDVYTASDYWGQGTLVTVSS
VL: DIQMTQSPSSLSASVGDRVTITCRASQGISSYLAWYQQKPGKAPKLLIYAASSLQSGVPSRFSGSGSGTDFTLTISSLQPEDFATYYCQQHYTTPPTFGQGTKVEIKR
notes: phage clone supernatant

What follows are binders tested against T1, human Nectin-4 extracellular antigen … (assay: ELISA, phage scFv supernatant 1:50).
Protocol: The supernatants were diluted 50-fold, and the binding OD values of the diluted supernatants to hNectin-4-His were measured by ELISA. The samples were serially 3-fold diluted, and the EC₅₀ titer for the binding of the supernatants to the antigen was measured by ELISA. […] The light chain variable region sequence is set forth in SEQ ID NO: 25. The OD value is the measurement of ELISA, and the EC₅₀ value denotes the EC₅₀ value of the binding activity titer of the supernatant to the antigen.
B1 was tested, and the OD value was 1.65 OD.
With B2 the OD value was 1.58 OD.
Binder B3 has an OD value of 1.56 OD.
B4 was tested, and the OD value was 1.52 OD.
B5 showed an OD value of 1.54 OD.
B6 was tested, and the OD value was 1.52 OD.
Work on B7 yielded an OD value of 1.59 OD.
B8 showed an OD value of 1.62 OD.
Binder B9 has an OD value of 1.59 OD.
With B10 the OD value was 1.59 OD.
In the case of B11, the OD value is reported as 1.02 OD.
With B12 the OD value was 1.59 OD.
In the case of B13, the OD value is reported as 1.57 OD.
B14 showed an OD value of 1.31 OD.
In the case of B15, the OD value is reported as 1.38 OD.
For B16, the OD value was 1.38 OD.
B17 showed an OD value of 1.57 OD.
In the case of B18, the OD value is reported as 1.62 OD.
B19 showed an OD value of 1.56 OD.
B20 was tested, and the OD value was 1.57 OD.
